From paper PMC4789793, “Noggin4 is a long-range inhibitor of Wnt8 signalling that regulates head development in Xenopus laevis” (Scientific Reports, 2016)
One block for each binder: values may come before it.

Columns and labels:
TagRFP-XWnt8 = target: T1, TagRFP-XWnt8 (Xenopus laevis, UniProt P28026 23-358); experiment: FRAP in living embryos; EGFP-Noggin4 bleached in a single intercellular space of the animal ectoderm that also holds TagRFP-Wnt8 (quasi-immobile); about 1 μM of each; Kd selected to fit the FRAP kinetics by a diffusion-adsorption model; conditions: partners not purified
T1 construct: Wnt8 (XWnt8), Xenopus laevis, secreted fusion with TagRFP; also called TagRFP-Wnt8
T1 sequence (looked up): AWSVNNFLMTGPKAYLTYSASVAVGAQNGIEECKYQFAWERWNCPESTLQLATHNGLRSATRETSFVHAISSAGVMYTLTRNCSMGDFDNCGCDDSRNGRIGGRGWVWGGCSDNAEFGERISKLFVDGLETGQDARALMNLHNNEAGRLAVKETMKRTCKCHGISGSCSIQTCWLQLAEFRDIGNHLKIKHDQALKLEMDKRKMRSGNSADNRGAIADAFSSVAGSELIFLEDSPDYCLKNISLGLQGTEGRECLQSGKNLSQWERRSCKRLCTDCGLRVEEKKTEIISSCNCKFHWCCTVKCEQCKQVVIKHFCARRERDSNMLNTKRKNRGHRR

[1] = target: Myc-Noggin4 (Xenopus laevis); experiment: co-IP; quantitative co-immunoprecipitation (qCoIP): gradually decreasing concentrations of Flag-Wnt8 added to a standard amount of Myc-Noggin4 pre-mixed with anti-Myc resin; bound and unbound Flag-Wnt8 by quantitative Western blot against Flag-BAP standard
[2] = target: 3Myc-His6-Noggin4 (Xenopus laevis); experiment: SPR; Biacore T200; 3Myc-6His-Noggin4 immobilised on CM5 chip (1,500 RU) by amine coupling; 6His-Wnt8 injected; HBS-EP, 25 °C; equilibrium responses fitted to a 1:1 Langmuir model

- Kd (TagRFP-XWnt8): ≤ 100 nM
B1: EGFP-Noggin4 (natural protein)
chain: MVHILVISWLMTLGTWGPTAICAPTNDLEPHNRTQKDMDIGSLRRQLSSGTRPYSLSLSPQDYHYSPKPKHLRVSRLLRLLGSSFDPFWMSVEQPADYSTSLLSTLSQDLYDGASRYRKKLAQEVQGLNFDSLQLPTELSANASQNIQNEIRQWLVQRASCQLTSTWVDLGTVFWPRWVRHTDCDGTNTACSWPPGMACRQAQFTQIKLLAWHCWMKDTGLGWATQQCTWRQVPYPVVAACKCTCR
modifications: No candidate is Noggin4 (P49011 is Noggin1). The paper reports two pseudoalleles and does not say which was used, so nog4.L is assumed. The Table S1 primers show the mature part starting at GQTNDL …

- Kd [1]: 10 nM
B2: Flag-Wnt8 (ligand)
chain: T1 sequence (looked up)

- Kd [2]: 90 nM
B3: Xenopus laevis recombinant Wnt8 labeled by 6-Hys-tag at the N-terminus (ligand)
chain: T1 sequence (looked up)
